According to US20200277373A1, “ANTI-TREM2 ANTIBODIES AND METHODS OF USE THEREOF” (Denali Therapeutics Inc., priority 2017, published 2020):

T1: TREM2 (Homo sapiens, UniProt Q9NZC2)
T1 construct: macrophage cells that endogenously express TREM2; endogenous in cells; host or cells: primary human monocyte-derived macrophages from donor blood
T1 sequence (Q9NZC2 19-230): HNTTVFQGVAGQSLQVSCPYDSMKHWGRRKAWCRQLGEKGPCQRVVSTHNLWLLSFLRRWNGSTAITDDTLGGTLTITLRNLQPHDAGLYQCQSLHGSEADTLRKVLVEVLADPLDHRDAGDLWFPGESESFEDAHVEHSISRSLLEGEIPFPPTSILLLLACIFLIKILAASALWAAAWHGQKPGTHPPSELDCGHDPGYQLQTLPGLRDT

T2: hTREM2 (Homo sapiens, UniProt Q9NZC2)
T2 construct: The ecto domain (residues 19-172) of TREM2 (UniProtKB—Q9NZC2); secretion signal of mouse Ig kappa chain V-III (P01661 aa 1-20) (N); made in house; host or cells: Expi293F
T2 sequence (Q9NZC2 19-172): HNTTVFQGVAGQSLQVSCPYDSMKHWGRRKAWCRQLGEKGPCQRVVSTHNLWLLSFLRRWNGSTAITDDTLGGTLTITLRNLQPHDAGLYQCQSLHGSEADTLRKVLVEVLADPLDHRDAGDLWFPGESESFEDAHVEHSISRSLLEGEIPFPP


Tests used:
soluble TREM2 (sTREM2) = biological target: T3, soluble TREM2 (sTREM2) (Homo sapiens, UniProt Q9NZC2); assay: Soluble TREM2 (TREM2 shedding) assay in HEK293 TREM2/DAP12 cells; type: cell-based; parameters: key to STREM2: NC = no change; −− = reduced sTREM2; ++ = increased sTREM2; details: for STREM2: change in sTREM2 levels
T3 construct: expressed in transfected cells
T3 sequence (O43914 22-113 partner, one chain of several): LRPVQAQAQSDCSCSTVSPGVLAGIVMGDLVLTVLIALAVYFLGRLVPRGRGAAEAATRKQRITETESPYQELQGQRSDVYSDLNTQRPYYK
Procedure: HEK293 cells stably expressing human TREM2 and DAP12 were plated onto 96-well plates pre-coated with poly-D-lysine 4-16 hours prior to antibody treatment. Antibody supernatants or control antibodies were diluted into fresh complete media and added onto cells in triplicate. Cells were incubated with antibody containing media for 18 hours prior to removal of the cell supernatant for assay by TREM2 ELISA. Samples and standards were diluted 1:10 into blocking buffer (3% BSA/TBST) in the assay plate. Briefly, MSD small spot streptavidin plates were coated with biotinylated anti-hTREM2 polyclonal antibody (R&D Systems) overnight at 4° C. or 1 hour at room temperature. Plates were then blocked overnight at 4° C., or 1 hour at room temperature, with blocking buffer, 3% BSA/TBST. Plates were washed three times with TBST in a Biotek plate washer (used for all washes) prior to addition of diluent (blocking buffer) and denatured supernatants from cell culture. A TREM2-His protein diluted in 3% BSA/TBST was used as a standard for absolute quantification. Following 1 hour incubation at room temperature, plates were washed with TBST. The primary detection antibody, sulfo-tagged goat anti-human TREM2 (R&D Systems), diluted in 3% BSA/TBST was added and incubated for 1 hour at room temperature. After washing with TBST, MSD plates were developed using 2×MSD read buffer T, followed by detection using an MSD Sector plate reader. MSD values were converted to absolute quantities of sTREM2 by fitting a standard curve using Prism 7.0 software (Graphpad). Modulation of TREM2 shedding was represented as a ratio to cells cultured with no specific TREM2 antibody in the media.

TREM2 [1] = biological target: T1, TREM2; assay: TREM2 PAM/pSyk assay on human macrophages; type: cell-based
Procedure: (§1) Human macrophages were differentiated from donor blood using a human monocyte enrichment cocktail (Stem Cell Technologies) and culturing monocytes with human mCSF for five days in macrophage media (RPMI+10% Hyclone FBS+Glutamax+Pen/Strep+non-essential amino acids+sodium pyruvate). On the fifth day, the human macrophages were scraped from the flasks and were re-plated at 100,000 cells/well on a 96-well poly-D-lysine-coated plate in the macrophage media (without mCSF). The cells were incubated for 24 hours to adhere, then the media was removed.
Antibodies pre-mixed with lipid vesicles comprised of 70% DOPC and 30% POPS (made according to the procedure for making vesicles described above) diluted in HBSS were immediately added to the cells, and allowed to incubate for 5 minutes at 37° C. The liposome/antibody solution was removed, and 35 μL lysis buffer (Cell Signaling Technologies, CST) was added using the liquid handler. The lysate was then incubated at 4° C. for 30 minutes, then either frozen at −80° C. or immediately carried forward to a pSyk AlphaLISA assay as described above. […] The results of the assay are shown in FIG. 9B and in Table 8 below.

TREM2 [2] = biological target: T4, TREM2 (Homo sapiens, UniProt Q9NZC2); assay: FACS binning on human TREM2-HEK cells (competition with R&D antibody); type: binding; details: epitope bin, 100 nM antibody
T4 construct: expressed in transfected cells
Procedure: HEK293 overexpressing human TREM2 (H6) were harvested by 0.05% trypsin and incubated at 37° C. incubator for 2 hours for surface TREM2 recovery. After incubation, cells were washed with 1×PBS and FACS buffer (PBS+0.5% BSA) with human Trustain FcX solution (Biolegend, Cat #422302) was added at a density of 10^6/mL. Cells were seeded at 100,000 cells per well in a 96-well round-bottom and incubated 20 minutes at room temperature. After incubation, anti-TREM2 antibodies (100 nM) were added to the cells and the cells were incubated for 45 minutes on ice. After incubation, rat anti-h/mTREM2-APC antibody (1:100, R&D, Cat # FAB17291A) was added to the cells, and the cells were incubated for 30 minutes on ice. After incubation, cells were washed with FACS buffer three times and resuspended in 10 μL FACS buffer, then analyzed by flow cytometry (BD FACSCanto II, San Jose, Calif.). 20,000 events were obtained for each sample. The ability to compete with R&D antibody was determined by MFI analysis compared to isotype or buffer control wells.
T4 sequence (O43914 22-113 partner, one chain of several): as above

hTREM2 = biological target: T2, hTREM2; assay: Octet binning (competition with R&D antibody on biotinylated TREM2-His); type: binding; details: epitope bin, 100 nM
Procedure: Competition with R&D antibody was done by Octet Red using biotinylated human Trem2-His protein generated in house. Biotinylated human TREM2-His protein was captured on a streptavidin tip, and the tip was then incubated in either 100 nM of R&D Ab or buffer for 3 minutes, followed by incubation for 3 minutes in 100 nM of testing hybridoma. The difference of hybridoma binding curve with or without pre-binding to R&D antibody was analyzed to determine the epitope.

TREM2 [3] = biological target: T1, TREM2; assay: TREM2 pSyk antagonist assay on human macrophages (antibody pre-incubation, then liposomes); type: cell-based; details: FIGS. 9C-9D, 30 nM antibody
Procedure: as §1
Antibodies diluted in RPMI alone were immediately added to the cells, and allowed to incubate for 30 minutes at 37° C. The antibodies were then removed. Lipid vesicles comprised of 70% DOPC and 30% POPS (made according to the procedure for making vesicles described above) in HBSS were added to the cells and incubated […] at 37° C. The liposome/antibody solution was removed, and 35 μL lysis buffer (Cell Signaling Technologies, CST) was added using the liquid handler. The lysate was then incubated at 4° C. for 30 minutes, then either frozen at −80° C. or immediately carried forward to a pSyk AlphaLISA assay as described above.

STREM2 (soluble TREM2 (sTREM2)) | Bin by FACS (TREM2 [2]) | Bin by Octet (hTREM2) | liposome mediated pSyk signaling after antibody pre-incubation (TREM2 [3]) | Molecule | other results
NC |  |  |  | RS9.F10: anti-TREM2 antibody clone; likely VH SEQ ID NO:6, VL SEQ ID NO:7 (antibody, V domains shown) VH: QVQLQQPGAELVKPGASVKLSCKASGYTFTSYWMHWVKQSPGRGLEWIGRSDPTTGGTNYNEKFKTKATLTVDKPSSTAYMQLSSLTSDDSAVYYCVRTSGTGDYWGQGTSLTVSSAKTTAPSVYPLAPVCGGTTGSSVT VL: DVVMTQTPLSLPVSLGDQASISCRSSQSLVHNNGNTFLHWYLQKPGQSPKLLIYKVSNRFSGVPDRFSGSGSGTDFTLKISRVEAEDLGVYFCSQTTHVPPTFGGGTKLEIKRADAAPTVSIFPPSSEQLTSGGASVVCF | 
−− | 1 | 1 |  | 42E8.H1: anti-TREM2 antibody clone; VH SEQ ID NO:20, VL SEQ ID NO:31 (antibody, V domains shown) VH: DVQLQESGPGLVKPSQSLSLTCTVTGYSITSDYAWNWIRQFPGNKLEWMGYINYSGRTIYNPSLKSRISITRDTSKNHFFLQLISVTTEDTATYYCARWNGNYGFAYWGQGTLVTVSA VL: DVVMTQNPLSLPVSLGDQASISCRSSQSLVHINGNTYLHWYLQKPGQSPKLLIYKVSNRFSGVPDRFSGSGSGTDFTLKISRVEAEDLGVYFCSQTTHALFTFGSGTKLEIK | TREM2 shedding (in words) (soluble TREM2 (sTREM2); FIG. 4, 18 hours): blocks TREM2 shedding
NC | 3 | 1-2 | blocked | 26D2.D1: anti-TREM2 antibody clone; VH SEQ ID NO:16, VL SEQ ID NO:27 (antibody, V domains shown) VH: EVQLQQSGPELVKPGASVKMSCKASGYTFTSYVMHWVKQKPGQGLEWIGYINPYTDGTKYNEKFKGKATLTSDKSSSTAYMDLSSLTSEDSAVYYCARGEVRRYALDYWGQGTSVTVSS VL: DIQMTQSSSSFSVSLGDRVTITCKASEDIYNRLAWYQQKPGNAPRLLISGATSLETGVPSRFSGSGSGKDYTLSITSLQTEDVATYYCQQYWSTPWTFGGGTKLEIK | 

Second part, the molecule before the results:

Molecule | STREM2 (soluble TREM2 (sTREM2)) | Bin by FACS (TREM2 [2]) | Bin by Octet (hTREM2) | liposome mediated pSyk signaling after antibody pre-incubation (TREM2 [3]) | other results
7B10.A2: anti-TREM2 antibody clone; VH SEQ ID NO:306, VL SEQ ID NO:310 (antibody, V domains shown) VH: EVQLQQSGPELVKPGASVKMSCKASGYTFTDYNMHWVKQSHGKSLEWIGYINPNNGGTTYNQKFKGKATLTVNKSSSTAYMELRSLTSEDSAVYYCATYNNHYFDSWGQGTTLTVSS VL: DIQMTQTTSSLSASLGDRVTISCSASQGISNYLNWYQQKPDGTVKLLIYYTSNLHSGVPSRFSGSGSGTDYSLTISNLEPEDIATYYCQQYSNLPYTFGGGTKLEIK |  |  |  |  | effect on lipid ligand activation of TREM2 (in words) (TREM2 [1]; FIG. 9B, human macrophages): synergistic with lipid TREM2 activators; Slope + Liposome (TREM2 [1]; pSyk, 10 nM antibody with 0, EC20, EC50, EC80 PS/PC liposomes, liposome-alone signal subtracted): 5,370
26E2.A3: anti-TREM2 antibody clone; VH SEQ ID NO:17, VL SEQ ID NO:28 (antibody, V domains shown) VH: QVHLQQSGSELRSPGSSVKLSCKDFDSEVFPISYMSWIRQKPGHGFEWIGDILPSIGGRIYGVKFEDRATLDADTVSNTAYLELNSLTSEDSAIYYCARKDYGSLAYWGQGTLVTVSA VL: DVVMTQTPLSLPVSLGDQASISCRSSQSLVHINGNTYLQWFLQKPGQSPKLLIYKVSNRFSGVPDRFSGSGSGTAFTLKISRVEAEDLGVYFCSQSTHVPYTFGGGTKLEIK |  |  |  | enhanced | 
49H11.B1: anti-TREM2 antibody clone; VH SEQ ID NO:21, VL SEQ ID NO:32 (antibody, V domains shown) VH: DVQLQESGPGLVKPSQSLSLTCTVTGYSITSDYAWNWIRQFPGNRLEWMGYISFSGSTSYNPSLKSRISITRDTSKNQFFLQLNSVTTEDTATYYCARWNGNYGFAYWGQGTLVTVSA VL: DVVMTQTPLSLPVSLGDQASISCRSSQSLVHINGNTYLHWYLQKPGQSPKLLIYKVSNRFSGVPDRFSGSGSGTDFTLKISRVEAEDLGVYFCSQSTHVTFTFGSGTKLEIK |  | 1 | 1 |  | 
